Holding throughout (conditions): Hepacivirus hominis
Substrate in data set [1]: CCCN(NC(=O)[C@H]1CCCN1C(=O)[C@@H](NC(=O)[C@@H](NC(=O)[C@H](CC(=O)O)NC(=O)[C@H](CCC(=O)O)NC(=O)[C@@H](NC(=O)[C@H](CC(=O)O)NC(C)=O)[C@@H](C)O)C(C)C)C(C)C)C(=O)Oc1ccc([N+](=O)[O-])cc1
Nature of the data set: Michaelis-Menten constant against Hepatitis C virus NS3 protease and represented as Km.

Substrate in data set [2]: CCCN(NC(=O)[C@H]1CCCN1C(=O)[C@@H](NC(=O)[C@@H](NC(=O)[C@H](CC(=O)O)NC(=O)[C@H](CCC(=O)O)NC(=O)[C@@H](NC(C)=O)[C@@H](C)O)C(C)C)C(C)C)C(=O)Oc1ccc([N+](=O)[O-])cc1
Nature of the data set: Binding affinity against Hepatitis C virus NS3 protease.

Substrate in data set [3]: CCCC(NC(=O)[C@H]1CCCN1C(=O)[C@@H](NC(=O)[C@@H](NC(=O)[C@H](CC(=O)O)NC(=O)[C@H](CCC(=O)O)NC(=O)[C@@H](NC(=O)[C@H](CC(=O)O)NC(C)=O)[C@@H](C)O)C(C)C)C(C)C)C(=O)Oc1ccc([N+](=O)[O-])cc1
Briefly: (§1) Michaelis-Menten constant was determined against Hepatitis C virus NS3 protease and represented as Km.

Substrate in data set [4]: CCCN(NC(=O)[C@H]1CCCN1C(=O)[C@@H](NC(=O)[C@@H](NC(C)=O)C(C)C)C(C)C)C(=O)Oc1ccc([N+](=O)[O-])cc1
The description is as §1.

Substrate in data set [5]: CCCN(NC(=O)[C@H]1CCCN1C(=O)[C@@H](NC(=O)[C@@H](NC(=O)[C@H](CC(=O)O)NC(=O)[C@H](CCC(=O)O)NC(C)=O)C(C)C)C(C)C)C(=O)Oc1ccc([N+](=O)[O-])cc1
Described as §1.

Substrate in data set [6]: CCCN(NC(=O)[C@H]1CCCN1C(=O)[C@@H](NC(=O)[C@@H](NC(=O)[C@H](CC(=O)O)NC(C)=O)C(C)C)C(C)C)C(=O)Oc1ccc([N+](=O)[O-])cc1
Described as §1.

B1: NS3 (Hepatitis C virus), A3EZJ3 (protein)
chain: APITAYAQQTRGLLGCIITGLTGRDKNQVEGEVQIVSTAAQTFLATCINGVCWTVYHGAGTRTIASSKGPVIQMYTNVDQDLVGWPAPQGARSLTPCTCGSSDLYLVTRHADVIPVRRRGDGRGSLLSPRPISYLKGSSGGPLLCPAGHAVGIFRAAVCTRGVAKAVDFIPVEGLETTMRSPVFSDNSSPPAVPQSYQVAHLHAPTGSGKSTKVPAAYAAQGYKVLVLNPSVAATLGFGAYMSKAHGIDPNIRTGVRTITTGSPITYSTYGKFLADGGCSGSAYDIIICDECHSTDATSILGIGTVLDQAETAGARLTVLATATPPGSVTVPHPNIEEVALSTTGEIPFYGKAIPLEAIKGGRHLIFCHSKKKCDELAAKLVALGVNAVAYYRGLDVSVIPASGDVVVVATDALMTGFTGDFDSVIDCNTCVTQTVDFSLDPTFTIETTTLPQDAVSRTQRRGRTGRGKPGIYRFVTPGERPSGMFDSSVLCECYDAGCAWYELTPAETTVRLRAYMNTPGLPVCQDHLEFWEGVFTGLTHIDAHFLSQTKQSGENLPYLVAYQATVCARAQAPPPSWDQMWKCLIRLKPTLHGPTPLLYRLGAVQNEITLTHPITKYIMTCMSADLEVVT
With B1, the Km in data set [1] was 5 µM; in data set [2], 5 µM; in data set [3] it was 4 µM; in data set [4] it was 100 µM; in data set [5], 4 µM; in data set [6] it was 9 µM.

(Values after ChEMBL document CHEMBL1135259, “Azapeptides as inhibitors of the hepatitis C virus NS3 serine protease” (Bioorg Med Chem Lett, 2002).)
